Marks after values point to notes of the source that are not given here. Values belong to the molecule of their own block, whether it stands above or below them. No end group written: not given here.
Experiments:
Human GLP-1R = biological target: T1, Human GLP-1R (Homo sapiens, UniProt P43220); assay: HTRF cAMP assay in HEK-293 cells, human GLP-1R; type: cell-based
T1 construct: expressed in transfected cells; host or cells: HEK-293
Method: (§1) Recombinant HEK-293 cells were grown in T175 culture flasks placed at 37° C. to near confluence in medium (DMEM with 10% FBS) and collected in 2 mL vials in cell culture medium containing 10% DMSO in concentrations of 1-5×10^7 cells/mL. Each vial contained 1.8 mL cell suspension. The vials were slowly frozen to −80° C. in an isopropanol chamber, and then transferred to liquid nitrogen for long term storage.
(§2) Prior to their use, frozen cells were thawed quickly at 37° C., washed with 20 mL cell buffer (1×HBSS; 20 mM HEPES, 0.1% BSA) and centrifuged for 5 minutes at 900 rpm. Cells were resuspended in assay buffer (cell buffer plus 2 mM IBMX) and adjusted to a cell density of 1×10^6 cells/mL. For measurement, 5 μL cell suspension (final 5×10^3 cells/well) and 5 μL of test compound were added to a well of a 384-well plate, followed by incubation for 30 minutes at room temperature. […] The cAMP content of cells was determined using a kit from Cisbio Corp. (cat. no. 62AM4PEC) based on Homogenous Time Resolved Fluorescence (HTRF).

Mouse GLP-1R = biological target: T2, Mouse GLP-1R (Mus musculus, UniProt O35659); assay: HTRF cAMP assay in HEK-293 cells, mouse GLP-1R; type: cell-based
T2 construct: expressed in transfected cells; host or cells: HEK-293
T2 sequence (O35659 22-463): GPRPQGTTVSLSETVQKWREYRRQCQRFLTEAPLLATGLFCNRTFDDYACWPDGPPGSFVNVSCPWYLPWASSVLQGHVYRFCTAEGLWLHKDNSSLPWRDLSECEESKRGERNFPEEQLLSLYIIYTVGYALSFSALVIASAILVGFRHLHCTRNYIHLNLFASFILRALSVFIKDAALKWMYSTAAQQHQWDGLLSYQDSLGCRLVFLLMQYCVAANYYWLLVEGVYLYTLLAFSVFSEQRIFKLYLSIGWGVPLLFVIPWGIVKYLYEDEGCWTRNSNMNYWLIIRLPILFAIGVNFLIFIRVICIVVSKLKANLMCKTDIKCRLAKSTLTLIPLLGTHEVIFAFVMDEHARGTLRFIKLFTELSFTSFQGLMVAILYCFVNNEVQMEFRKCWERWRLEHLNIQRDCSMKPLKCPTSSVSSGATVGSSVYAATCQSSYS
Method: as §1, §2

Monkey GLP-1R = biological target: T3, Monkey GLP-1R (Macaca fascicularis, UniProt F8V479); assay: HTRF cAMP assay in HEK-293 cells, monkey GLP-1R; type: cell-based
T3 construct: expressed in transfected cells; host or cells: HEK-293
Method: as §1, §2

[1] = biological target: T4, human FGFR1c together with human beta-Klotho (KLB) (human, UniProt P11362 22-822; Q86Z14 1-1044); assay: cell-based or functional assay
[2] = biological target: T4, human FGFR1c together with human …; assay: cell-based or functional assay; remark: listed apart in the source
[3] = Thermal shift assay (DSF, Sypro Orange); type: physicochemical; settings: Data generated via DSF
Excerpt: In addition, for some proteins a thermal shift assay was applied to analyze thermostability in imitation of differential scanning fluorimetry (DSF or ThermoFluor™) assays (Ahmad S. et al. (2012) Protein Science 21: 433-446; Pantoliano et al. (2001) J. Biomol. Screen 6: 429-440; Niesen et al. (2007) Nat. Protoc. 2: 2212-21). This assay is based on the observation that hydrophobic fluorescent dyes, such as Sypro™ Orange (Life Technologies, cat. No. S6651), increase their fluorescence when they bind to hydrophobic patches on a protein.
Proteins were tested by mixing a solution of each protein in PBS (Gibco) with a 160× solution of Sypro™Orange (diluted in water from a 5000×DMSO stock as provided by the supplier). The sample volume was adjusted to 20 μL with PBS. Typical conditions contained 0.8 mg/mL protein and 8× Sypro™Orange in the final mixture, but protein concentrations could be varied between 0.4 mg/mL and 1.2 mg/mL. Samples were dispensed in 96-well PCR plates (BioRad Semi-Skirt 96 white) and shortly centrifuged to remove air bubbles. […] For excitation and quantification of fluorescence, filters for wavelengths of 485 nm and 575 nm were chosen. […] In curves of fluorescence intensity against temperature, the inflection point was chosen as the measure for the melting temperature (Tm).

[4] = Pharmacokinetics after single subcutaneous administration in mouse; type: in vivo, female C57BI/6 mice; settings: FGF21 intact assay; 0.3 mg/kg subcutaneous
Method: Plasma concentrations and pharmacokinetic parameters of GLP-1 RA/FGF21 Fc fusion proteins were determined after single subcutaneous administration of 0.3 mg/kg in solution to female C57BI/6 mice or male Cynomolgus monkeys using three different methods. Blood samples were obtained at time points from 30 minutes to 168 hours after dosing. […]
a.) Bioanalytical Screening Method for Quantification of the Intact FGF21 Part of the GLP-1 RA/FGF21 Fc Fusion Proteins Plasma samples were analyzed for the intact FGF21 part of the fusion proteins with an ELISA kit (F1231-K01, Eagle Biosciences, USA). […] For the detection of this immunocomplex, the well was then incubated with a substrate solution in a timed reaction and then measured in a spectrophotometric microplate reader. […]
b.) Bioanalytical Screening Method for Quantification of the Intact Full-Length Fusions Proteins The concentration of the full-length GLP-1RA/FGF21 Fc fusion proteins in plasma were determined utilizing an ELISA method. […] Following washing 3 times with 300 μL PBS-T 150 μL read buffer was added to the wells. […]
c.) Bioanalytical Screening Method for Quantification of the Intact GLP-1 Part of the GLP-1 FGF21 Fc Fusion Proteins Plasma samples were analyzed for the intact GLP-1 part of the fusion proteins with a GLP-1 ELISA method. […]

T4 sequence (P11362 22-822, chain 1 of 2): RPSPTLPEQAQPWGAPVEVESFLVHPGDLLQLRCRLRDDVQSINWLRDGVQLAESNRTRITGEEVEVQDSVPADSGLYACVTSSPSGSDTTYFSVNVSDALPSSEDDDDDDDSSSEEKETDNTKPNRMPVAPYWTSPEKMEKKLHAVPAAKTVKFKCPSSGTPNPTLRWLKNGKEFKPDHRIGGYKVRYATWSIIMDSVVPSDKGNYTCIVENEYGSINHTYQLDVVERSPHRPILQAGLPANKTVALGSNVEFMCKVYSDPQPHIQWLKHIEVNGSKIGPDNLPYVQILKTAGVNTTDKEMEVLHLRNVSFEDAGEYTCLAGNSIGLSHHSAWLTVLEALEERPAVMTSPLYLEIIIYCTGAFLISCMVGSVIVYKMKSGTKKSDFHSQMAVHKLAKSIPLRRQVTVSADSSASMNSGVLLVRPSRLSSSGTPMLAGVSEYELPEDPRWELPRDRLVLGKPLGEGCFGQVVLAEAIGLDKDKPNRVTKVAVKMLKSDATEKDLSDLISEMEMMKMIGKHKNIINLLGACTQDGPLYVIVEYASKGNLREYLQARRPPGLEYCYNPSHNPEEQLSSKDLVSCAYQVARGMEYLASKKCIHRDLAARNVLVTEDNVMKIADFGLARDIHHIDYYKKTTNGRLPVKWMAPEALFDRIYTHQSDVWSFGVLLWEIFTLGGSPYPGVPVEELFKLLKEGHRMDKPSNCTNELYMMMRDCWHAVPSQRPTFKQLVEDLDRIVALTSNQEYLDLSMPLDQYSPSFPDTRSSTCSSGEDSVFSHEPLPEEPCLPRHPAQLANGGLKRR
T4 sequence (Q86Z14 whole entry, chain 2 of 2): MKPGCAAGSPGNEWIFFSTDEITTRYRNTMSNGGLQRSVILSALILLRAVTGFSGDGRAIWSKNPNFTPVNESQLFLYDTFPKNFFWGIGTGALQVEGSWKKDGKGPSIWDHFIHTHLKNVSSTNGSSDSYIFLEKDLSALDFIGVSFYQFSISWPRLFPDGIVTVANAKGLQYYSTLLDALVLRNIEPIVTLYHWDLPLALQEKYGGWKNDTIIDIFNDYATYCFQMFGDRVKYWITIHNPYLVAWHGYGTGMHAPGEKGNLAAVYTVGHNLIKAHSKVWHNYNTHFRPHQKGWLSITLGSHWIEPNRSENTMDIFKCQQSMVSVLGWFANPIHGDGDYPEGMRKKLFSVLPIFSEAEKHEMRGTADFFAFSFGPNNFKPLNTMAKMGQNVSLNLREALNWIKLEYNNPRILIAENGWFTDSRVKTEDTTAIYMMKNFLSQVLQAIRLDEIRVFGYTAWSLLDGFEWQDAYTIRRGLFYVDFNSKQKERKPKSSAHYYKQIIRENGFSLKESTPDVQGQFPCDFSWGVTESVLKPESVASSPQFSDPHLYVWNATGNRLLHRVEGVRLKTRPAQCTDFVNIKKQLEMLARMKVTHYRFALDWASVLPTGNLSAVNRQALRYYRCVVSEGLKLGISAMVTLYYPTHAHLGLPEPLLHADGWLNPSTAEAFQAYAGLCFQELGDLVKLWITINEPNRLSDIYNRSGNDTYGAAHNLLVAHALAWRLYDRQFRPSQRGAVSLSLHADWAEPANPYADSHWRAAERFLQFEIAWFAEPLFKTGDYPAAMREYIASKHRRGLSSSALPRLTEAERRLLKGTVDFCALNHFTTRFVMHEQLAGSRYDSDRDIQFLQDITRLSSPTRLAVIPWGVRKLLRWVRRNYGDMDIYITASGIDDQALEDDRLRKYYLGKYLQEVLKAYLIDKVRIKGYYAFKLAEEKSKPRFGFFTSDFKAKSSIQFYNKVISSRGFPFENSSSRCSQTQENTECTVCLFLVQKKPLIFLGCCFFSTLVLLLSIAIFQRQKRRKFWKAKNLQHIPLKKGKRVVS
T3 sequence (F8V479 24-463): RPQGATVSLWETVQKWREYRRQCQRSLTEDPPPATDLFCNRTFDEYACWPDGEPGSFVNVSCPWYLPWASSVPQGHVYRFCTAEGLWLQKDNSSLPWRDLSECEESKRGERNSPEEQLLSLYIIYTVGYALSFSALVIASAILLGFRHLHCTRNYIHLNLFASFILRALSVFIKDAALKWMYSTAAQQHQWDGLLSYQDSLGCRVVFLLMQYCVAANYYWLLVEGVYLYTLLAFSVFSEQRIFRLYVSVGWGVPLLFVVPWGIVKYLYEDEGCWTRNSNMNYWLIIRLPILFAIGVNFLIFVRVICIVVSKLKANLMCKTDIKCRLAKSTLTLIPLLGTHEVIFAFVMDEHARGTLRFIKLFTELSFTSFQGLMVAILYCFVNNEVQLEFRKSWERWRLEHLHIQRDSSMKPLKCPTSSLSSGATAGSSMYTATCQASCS
T1 sequence (P43220 24-463): as the sequence (F8V479 24-463) above, with N112S, S120F, G202S, V205L, F237L, R241W, V249I counted along it

EC50 (Human GLP-1R): 0.0105 nM | EC50 (Mouse GLP-1R): 7.65 pM | EC50 (Monkey GLP-1R): 5.74 pM
Molecule: GHGEGTFTSDKSKQLEEEAVRLFIEWLKAGGPKKIRYS-NH2 [compound 278]

pFGFR ICW EC50 [1]: 4.49 nmol/L | pERK ICW EC50 [2]: 0.17 nmol/L
B1: G-FGF21 (mature human wild-type FGF21 with an additional N-terminal Gly) (ligand)
chain: GHPIPDSSPLLQFGGQVRQRYLYTDDAQQTEAHLEIREDGTVGGAADQSPESLLQLKALKPGVIQILGVKTSRFLCQRPDGALYGSLHFDPEACSFRELLLEDGYNVYQSEAHGLPLHLPGNKSPHRDPAPRGPARFLPLPGLPPAPPEPPGILAPQPPDVGSSDPLSMVGPSQGRSPSYAS

B2: 252 (protein)
chain: B1 chain
modifications: G-FGF21
Tm (melting temperature) [3]: 43.1* ° C. | t1/2 mouse [4]: 42 min
